Experimental findings from PMC3407147, “Therapeutic Inhibition of Pro-Inflammatory Signaling and Toxicity to Staphylococcal Enterotoxin B by a Synthetic Dimeric BB-Loop Mimetic of MyD88” (PLoS ONE, 2012) are described below.

This data set concerns the molecule itself. The data set is described as follows: peptide or protein array; MyD88 TIR domain monomer spotted in quadruplicate on nitrocellulose-coated slides; biotinylated MyD88 (25 µg/ml) in 50 mM Hepes, 0.1% Tween, 3% human antibody serum, 2 h at room temperature; detected with streptavidin-Alexa Fluor 647; with or without pre-incubation with EM-163 (100 and 50 µg/ml) or DMSO.

B1: recombinant MyD88 TIR domain (amino acids 157-296) (domain or fragment, human, UniProt Q99836 157-296, looked up)
chain: MPERFDAFICYCPSDIQFVQEMIRQLEQTNYRLKLCVSDRDVLPGTCVWSIASELIEKRCRRMVVVVSDDYLQSKECDFQTKFALSLSPGAHQKRLIPIKYKAMKKEFPSILRFITVCDYTNPCTKSWFWTRLAKALSLP
modifications: biotin (EZ Link Biotin BMCC kit) on the copy in solution; the copy spotted on the slide is not biotinylated
notes: also called MyD88 (157-296); TIR domain protein (monomer); not shown: His, N-terminal, cleaved; MBP, N-terminal, cleaved
On to B1, for which the binding result is “binds”.
